Data on three molecules can be found in US20030099608A1 (ZymoGenetics, published 2003).

For assay [1], the target named is human IL-TIF (T-cell inducible Factor) (human) (UniProt Q9GZX6). The assay can be described thus: cell-based or functional assay.
For assay [2], the target named is T1, CRF2-4/zcytor11 heterodimeric receptor on BaF3 cells (BaF3/CRF2-4/zcytor11 cells) (human, UniProt Q08334 20-325; Q8N6P7 16-574).
T1 sequence (looked up) 1: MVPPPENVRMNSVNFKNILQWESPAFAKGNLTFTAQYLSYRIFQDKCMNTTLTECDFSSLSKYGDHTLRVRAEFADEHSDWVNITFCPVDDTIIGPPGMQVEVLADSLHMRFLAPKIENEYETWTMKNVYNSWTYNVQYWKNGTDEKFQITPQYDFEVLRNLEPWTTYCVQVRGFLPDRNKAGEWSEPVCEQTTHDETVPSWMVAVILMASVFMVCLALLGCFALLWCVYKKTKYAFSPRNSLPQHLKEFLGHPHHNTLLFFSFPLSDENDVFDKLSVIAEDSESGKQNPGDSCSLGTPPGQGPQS
T1 sequence (looked up) 2: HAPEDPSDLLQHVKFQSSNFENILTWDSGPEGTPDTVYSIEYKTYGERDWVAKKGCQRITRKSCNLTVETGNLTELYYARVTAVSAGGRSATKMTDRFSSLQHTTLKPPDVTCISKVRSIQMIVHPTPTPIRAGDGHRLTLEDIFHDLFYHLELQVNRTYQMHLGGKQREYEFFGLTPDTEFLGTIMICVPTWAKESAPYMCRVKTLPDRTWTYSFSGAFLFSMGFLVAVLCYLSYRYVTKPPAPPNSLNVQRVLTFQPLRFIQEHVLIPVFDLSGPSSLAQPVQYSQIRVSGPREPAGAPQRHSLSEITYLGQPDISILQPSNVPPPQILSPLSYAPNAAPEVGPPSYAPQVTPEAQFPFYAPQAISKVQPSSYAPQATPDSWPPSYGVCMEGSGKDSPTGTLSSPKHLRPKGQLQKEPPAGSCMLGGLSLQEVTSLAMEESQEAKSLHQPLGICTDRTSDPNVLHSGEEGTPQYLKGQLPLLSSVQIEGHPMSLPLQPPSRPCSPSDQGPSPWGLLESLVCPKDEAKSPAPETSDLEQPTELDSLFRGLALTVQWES
The assay can be described thus: cell-based or functional assay.

As for “secreted hzcytor11/hCRF2-4 heterodimer (CRF2-4/zcytor11-Fc4) (Fc fusion)”, in assay [1], the concentration of CRF2-4/zcytor11-Fc4 at which inhibition of proliferation induced by 100 pg/ml IL-TIF was barely detectable came to 63 ng/mL and the concentration of CRF2-4/zcytor11-Fc4 giving complete inhibition of proliferation induced by 100 pg/ml IL-TIF was determined as 8 µg/mL.

B1: IL-TIF-CEE (IL-TIF polypeptide with C-terminal Glu-Glu tag) (ligand)
chain: APISSHCRLDKSNFQQPYITNRTFMLAKEASLADNNTDVRLIGEKLFHGVSMSERCYLMKQVLNFTLEEVLFPQSDRFQPYMQEVVPFLARLSNRLSTCHIEGDDLHIQRNVQKLKDTVKKLGESGEIKAIGELDLLFMSLRNACIEYMPME
For B1, in assay [2], the “proliferation of BaF3/CRF2-4/zcytor11 cells (Alamar Blue), fold induction at 0.06 ng/ml IL-TIF-CEE” value was determined as 2 fold induction and the “proliferation of BaF3/CRF2-4/zcytor11 cells (Alamar Blue), fold over background at 50 ng/ml IL-TIF-CEE” value was ~15 fold over background.

B2: human IL-TIF (T-cell inducible Factor) (ligand)
chain: APISSHCRLDKSNFQQPYITNRTFMLAKEASLADNNTDVRLIGEKLFHGVSMSERCYLMKQVLNFTLEEVLFPQSDRFQPYMQEVVPFLARLSNRLSTCHIEGDDLHIQRNVQKLKDTVKKLGESGEIKAIGELDLLFMSLRNACI
B2: the “proliferation of BaF3/CRF2-4/zcytor11 cells (Alamar Blue), fold over background with 100 pg/ml IL-TIF alone” value in assay [2] was determined as 13 fold over background.
